Experimental data from patent US12564623B2, “Methods and compositions for treating cancer” (The University of Chicago, priority 2017, dated 2026).

Key:
CD95 = molecular target: T1, CD95 (Homo sapiens, UniProt P25445); test: CD95 loss and immunoreactivity in ELANE-treated cancer cells; format: cell-based; parameters: endogenous in cells; host or cells: Mel888 melanoma cells
T1 sequence (P25445 26-335): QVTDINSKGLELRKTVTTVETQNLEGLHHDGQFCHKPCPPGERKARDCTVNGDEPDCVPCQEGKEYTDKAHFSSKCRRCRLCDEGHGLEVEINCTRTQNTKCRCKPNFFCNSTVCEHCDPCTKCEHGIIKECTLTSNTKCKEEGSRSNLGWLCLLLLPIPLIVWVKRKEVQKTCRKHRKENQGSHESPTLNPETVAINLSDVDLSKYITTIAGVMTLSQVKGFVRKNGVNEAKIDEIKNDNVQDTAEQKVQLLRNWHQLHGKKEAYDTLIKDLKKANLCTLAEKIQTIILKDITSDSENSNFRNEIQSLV
Method: ELANE lowers CD95 levels in cancer cells and reduced CD95 levels are associated with apoptosis. (FIG. 8A) Recombinant proteins (1 μg) corresponding to full length CD95 (FL-CD95), N-terminal domain of CD95 (amino acids 1-173; N-CD95), or C-terminal domain of CD95 (amino acids 157-320; C-CD95) were inbuated with ELANE (0.05 μg) or vehicle (Veh) for 2 hrs at 37° C. Degradation was assessed by SDS-PAGE followed by coomassie blue staining. […] (FIG. 8C) Cancer cells were treated with ELANE (50 nM) for 1 hr, fixed in 10% formalin, and stained with N- or C-terminal specific anti-CD95 antibodies (green). Hoechst 33342 solution was used for nuclear staining (blue). Images were taken under 40×.
ELANE selectively cleaves the C-terminal domain of CD95. The CD95 pathway is essential for the survival of a wide range of cancer cells, but largely dispensable for normal cell survival (Adachi et al., Nat. Genet., 1995; Karray et al., J. Immunol., 2004). CD95 function can be modulated by proteolysis (Strand et al., Oncogene, 2004). […] Degradation was assessed by SDS-PAGE followed by staining with coomassie blue. […] Mel888 cancer cells were treated with ELANE (50 nM) for various times, and CD95 degradation was assessed by western blot analysis with a C-terminal specific anti-CD95 antibody.

MDA-MB-231 cells = test: Cancer cell killing, Calcein AM staining; format: cell-based, human

B1: neutrophil elastase (protein, listed as Homo sapiens)
chain: MTLGRRLACLFLACVLPALLLGGTALASEIVGGRRARPHAWPFMVSLQLRGGHFCGATLIAPNFVMSAAHCVANVNVRAVRVVLGAHNLSRREPTRQVFAVQRIFENGYDPVNLLNDIVILQLNGSATINANVQVAQLPAQGRRLGNGVQCLAMGWGLLGRNRGIASVLQELNVTVVTSLCRRSNVCTLVRGRQAGVCFGDSGSPLVCNGLIHGIASFVRGGCASGLYPDAFAPVAQFVNWIDSIIQRSEDNPCPHPRDPDPASRTH
notes: purified native ELANE
CD95 immunoreactivity of cancer cells (CD95; 50 nM, 1 hr): lose immunoreactivity to a C-terminal specific CD95 antibody, but not to an N-terminal specific CD95 antibody
CD95 at the cell surface (CD95; incubating cancer cells with ELANE): CD95 loss from the cell surface
cancer cell killing activity of purified protein (MDA-MB-231 cells; increasing doses, 5h): highest cancer cell killing activity
toxicity to cancer cells, ELANE versus PPE (MDA-MB-231 cells; various doses, 6 h): equally toxic to cancer cells
